The text below walks through data of the Immune Epitope Database (IEDB).

The target in experiment [1] is HLA-A*02:03. Briefly: IEDB peptide-MHC binding, purified MHC/competitive/radioactivity; ≥ and ≤ were set here for values at or beyond the usual limits of such assays.
Experiment [2] deals with HLA-A*68:02. Briefly: IEDB peptide-MHC binding, cellular MHC/competitive/fluorescence; ≥ and ≤ were set here for values at or beyond the usual limits of such assays.
Experiment [3] addresses HLA-A*02:06. The experiment is described as above.
In experiment [4] the target is HLA-A*02:02. The experiment is described as above.
The target in experiment [5] is HLA-A*02:01. The experiment is described as above.
For experiment [6], the target named is HLA-A*68:02. Briefly: IEDB peptide-MHC binding, purified MHC/competitive/radioactivity; ≥ and ≤ were set here for values at or beyond the usual limits of such assays.
The target in experiment [7] is HLA-A*02:01. Described as above. The conditions noted are these: source organism: Vaccinia virus WR.
Where [8] appears, read: source organism: Vaccinia virus WR.
Setting [9] is: source organism: Influenza A virus.

As usually defined, the IC50 is the concentration that gives 50% inhibition. Take AAAKTPVIVV: the IC50 stood at 1520 nM in experiment [1] (setting [8]); 5.25 µM in experiment [2] (setting [8]); 13.4 µM in experiment [3] (setting [8]); 8.04 µM in experiment [4] (setting [8]); 44.3 µM in experiment [5] (setting [8]).
In the case of AAGAAVKGV, the IC50 in experiment [1] (setting [9]) is 2300 nM; in experiment [2] (setting [9]) it was 26 µM; in experiment [3] (setting [9]) it was 25.5 µM; in experiment [4] (setting [9]), not below 70 µM; in experiment [5] (setting [9]), 56.8 µM.
For AIRGQYSGFV the same measures were 92 nM, 18.4 µM, 42.8 µM, 6.28 µM and 12.9 µM.
For the sequence AMHDKKIDI, the IC50 in experiment [1] (setting [8]) was determined as 1520 nM; in experiment [2] (setting [8]), 8 µM; in experiment [3] (setting [8]) it was 42 µM; in experiment [4] (setting [8]) it was 17.2 µM; in experiment [5] (setting [8]), 8.85 µM.
Take DAKRNSKSLV: the IC50 in experiment [1] (setting [8]) worked out at 2870 nM; in experiment [2] (setting [8]) it was 12.6 µM; in experiment [3] (setting [8]) it was 52.1 µM; in experiment [4] (setting [8]), 13.3 µM; in experiment [5] (setting [8]), 30.3 µM.
As for DIRDKYMEL, the IC50 worked out at 3860 nM in experiment [1] (setting [8]); 14.7 µM in experiment [2] (setting [8]); 14.6 µM in experiment [3] (setting [8]); 24.3 µM in experiment [4] (setting [8]); 10.3 µM in experiment [5] (setting [8]).
As for EIKAEMQLKI, the IC50 in experiment [1] (setting [8]) was 4760 nM; in experiment [2] (setting [8]), 5.12 µM; in experiment [3] (setting [8]), 14.3 µM; in experiment [4] (setting [8]) it was 16.9 µM; in experiment [5] (setting [8]), 27.5 µM.
Turning to EILRNYLRL, the IC50 in experiment [1] (setting [8]) worked out at 2090 nM; in experiment [2] (setting [8]) it was 9.23 µM; in experiment [3] (setting [8]) it was 12.9 µM; in experiment [4] (setting [8]), 14 µM; in experiment [5] (setting [8]), 10.5 µM.
EIVSHLRAST: the 50% inhibitory concentration (IC50) was 2810 nM in experiment [1] (setting [8]); 6.33 µM in experiment [2] (setting [8]); 12.6 µM in experiment [3] (setting [8]); 5.15 µM in experiment [4] (setting [8]); not below 70 µM in experiment [5] (setting [8]).
For ELENKKVEYV, the concentration for half-maximal inhibition (IC50) in experiment [1] (setting [8]) is 3650 nM; in experiment [2] (setting [8]), not below 70 µM; in experiment [3] (setting [8]), not below 70 µM; in experiment [4] (setting [8]) it was 21.4 µM; in experiment [5] (setting [8]), 35.5 µM.
In the case of ELTSNCTRTT, the IC50 in experiment [1] (setting [8]) turned out to be 1470 nM; in experiment [2] (setting [8]), 5.04 µM; in experiment [3] (setting [8]) it was 5.72 µM; in experiment [4] (setting [8]), 14.6 µM; in experiment [5] (setting [8]) it was 15.2 µM.
For the sequence EQYTCNKPYT, the IC50 was 3010 nM in experiment [1] (setting [8]); 20.4 µM in experiment [2] (setting [8]); 45.7 µM in experiment [3] (setting [8]); 14 µM in experiment [4] (setting [8]); not below 70 µM in experiment [5] (setting [8]).
On to FIVYGRSNA, for which the IC50 in experiment [1] (setting [8]) is 370 nM; in experiment [2] (setting [8]), 5.26 µM; in experiment [3] (setting [8]), 8.75 µM; in experiment [4] (setting [8]) it was 6.09 µM; in experiment [5] (setting [8]), 16.9 µM.
In the case of FLKVPAQNA, the IC50 in experiment [1] (setting [9]) is 838 nM; in experiment [2] (setting [9]), 29 µM; in experiment [3] (setting [9]), not below 70 µM; in experiment [4] (setting [9]), 6.66 µM; in experiment [5] (setting [9]) it was 11.3 µM.
Regarding FVKKMLPKII, the IC50 in experiment [1] (setting [8]) was found to be 1140 nM; in experiment [2] (setting [8]), 14.1 µM; in experiment [3] (setting [8]), 6.71 µM; in experiment [4] (setting [8]), 11.1 µM; in experiment [5] (setting [8]), 32.7 µM.
In the same order, the values of GIIITVGML are 349 nM, 19.6 µM, 18.4 µM, 8.67 µM and 6.56 µM.
In the same order, the values of GILIYDDNI are 1700 nM, 33.5 µM, 13.3 µM, 11.7 µM and 11.3 µM.
With GIRCVSNLDI, the IC50 in experiment [1] (setting [8]) was 3870 nM; in experiment [2] (setting [8]), not below 70 µM; in experiment [3] (setting [8]) it was 33 µM; in experiment [4] (setting [8]) it was 20.1 µM; in experiment [5] (setting [8]), not below 70 µM.
Turning to HANNSTDTV, the IC50 in experiment [6] (setting [9]) came to 168 nM; in experiment [1] (setting [9]) it was 4320 nM; in experiment [3] (setting [9]), 55 µM; in experiment [4] (setting [9]), 8.32 µM; in experiment [5] (setting [9]) it was 24 µM.
As for HQRRLVKLL, the IC50 in experiment [1] (setting [8]) was 1680 nM; in experiment [2] (setting [8]), not below 70 µM; in experiment [3] (setting [8]), 21.3 µM; in experiment [4] (setting [8]), 15.9 µM; in experiment [5] (setting [8]) it was 26.6 µM.
KLYIALCKVT: the 50% inhibitory concentration (IC50) in experiment [1] (setting [8]) amounted to 625 nM; in experiment [2] (setting [8]), 18.6 µM; in experiment [3] (setting [8]), 6.36 µM; in experiment [4] (setting [8]) it was 7.11 µM.
For LVITYCLVT, the IC50 in experiment [1] (setting [8]) worked out at 3250 nM; in experiment [7], 1330 nM; in experiment [2] (setting [8]) it was 5.75 µM; in experiment [3] (setting [8]), 8.01 µM; in experiment [4] (setting [8]), 6.98 µM.
Consider NISFKSINKV, for which the IC50 was 2030 nM in experiment [6] (setting [8]); 1530 nM in experiment [1] (setting [8]); 11.7 µM in experiment [3] (setting [8]); 20.3 µM in experiment [4] (setting [8]); 14.5 µM in experiment [5] (setting [8]).
With NMWREILSNT, the IC50 in experiment [1] (setting [8]) amounted to 56 nM; in experiment [7] it was 997 nM; in experiment [2] (setting [8]) it was 63.2 µM; in experiment [3] (setting [8]), 12 µM; in experiment [4] (setting [8]), 6.07 µM.
Consider NTKSDNIINI, for which the IC50 in experiment [6] (setting [8]) is 101 nM; in experiment [1] (setting [8]), 1080 nM; in experiment [3] (setting [8]) it was not below 70 µM; in experiment [4] (setting [8]), 30.8 µM; in experiment [5] (setting [8]), not below 70 µM.
With NTLISSDGA, the IC50 in experiment [1] (setting [8]) was 3570 nM; in experiment [2] (setting [8]) it was 25.4 µM; in experiment [3] (setting [8]), 49.3 µM; in experiment [4] (setting [8]), 7.41 µM.
Consider PTSETMYLT, for which the IC50 in experiment [6] (setting [8]) was 4040 nM; in experiment [1] (setting [8]) it was 3640 nM; in experiment [3] (setting [8]) it was not below 70 µM; in experiment [4] (setting [8]), 10.4 µM; in experiment [5] (setting [8]), 34.9 µM.
In the case of RTEIIRMMESA, the IC50 in experiment [6] (setting [9]) was 4320 nM; in experiment [1] (setting [9]), 4470 nM; in experiment [3] (setting [9]), not below 70 µM; in experiment [4] (setting [9]), 8.29 µM; in experiment [5] (setting [9]), not below 70 µM.
As to RVNHAKYMVT, the IC50 came out at 544 nM in experiment [6] (setting [8]); 1050 nM in experiment [1] (setting [8]); 9.34 µM in experiment [3] (setting [8]); 33.6 µM in experiment [4] (setting [8]); 39 µM in experiment [5] (setting [8]).
For STKADAVVA the same measures were 820 nM, 4950 nM, 16.2 µM, 8.19 µM and 29.3 µM.
In the case of SVDAMIHKT, the IC50 in experiment [6] (setting [8]) was found to be 878 nM; in experiment [1] (setting [8]), 3660 nM; in experiment [3] (setting [8]) it was 10.6 µM; in experiment [4] (setting [8]), 5.02 µM; in experiment [5] (setting [8]) it was 24.1 µM.
On to SVNASKTINA, for which the IC50 is 629 nM in experiment [6] (setting [8]); 731 nM in experiment [1] (setting [8]); 28.7 µM in experiment [3] (setting [8]); 17.3 µM in experiment [4] (setting [8]); 19.3 µM in experiment [5] (setting [8]).
On to TAIRAGYSIV, for which the IC50 amounted to 1050 nM in experiment [6] (setting [8]); 72 nM in experiment [1] (setting [8]); 8.59 µM in experiment [3] (setting [8]); 6.82 µM in experiment [4] (setting [8]); 26.2 µM in experiment [5] (setting [8]).
As for TVEFDRDKVV, the IC50 in experiment [6] (setting [8]) was 2630 nM; in experiment [1] (setting [8]), 1600 nM; in experiment [3] (setting [8]) it was 30.8 µM; in experiment [4] (setting [8]), 16.2 µM; in experiment [5] (setting [8]) it was 30.9 µM.
For the sequence VIRHVDGKI, the IC50 in experiment [6] (setting [8]) turned out to be 1440 nM; in experiment [1] (setting [8]), 978 nM; in experiment [3] (setting [8]), 9.27 µM; in experiment [4] (setting [8]), 8.55 µM; in experiment [5] (setting [8]), 43.3 µM.
Take YVSSSYKDI: the IC50 in experiment [6] (setting [8]) turned out to be 2630 nM; in experiment [1] (setting [8]), 1200 nM; in experiment [3] (setting [8]), 16.6 µM; in experiment [4] (setting [8]), 5.04 µM; in experiment [5] (setting [8]), 31.2 µM.
